Measurements: article PMC7955116, “The FlgN chaperone activates the Na^+-driven engine of the Salmonella flagellar protein export apparatus” (Communications Biology, 2021)

B1: His-FlgN (natural protein)
chain: MTRLSEILDQMTTVLNDLKTVMDAEQQQLSVGQINGSQLQRITEEKSSLLATLDYLEQQRRLEQNAQRSANDDIAERWQAITEKTQHLRDLNQHNGWLLEGQIERNQQALEVLKPHQEPTLYGADGQTSVSHRGGKKISI
notes: FlgN of Salmonella enterica serovar Typhimurium; source: E. coli BL21 (DE3) Star, in lysate or purified (Ni-NTA)
B2: GST-FliJ(Δ13–24) (natural protein)
chain: MAQHGALETLKDLGEMRRGCQQAEEQLKMLIDYQNEYRSNLNTDMGNGIASNRWINYQQFIQTLEKAIEQHRLQLTQWTQKVDLALKSWREKKQRLQAWQTLQDRQTAAALLAENRMDQKKMDEFAQRAAMRKPE
notes: FliJ of Salmonella enterica serovar Typhimurium with residues 13-24 deleted; also called GST-J(Δ13–24)

Tests used:
GST-FliJ = target: T1, GST-FliJ (Salmonella enterica serovar Typhimurium, UniProt P0A1K1 1-147); assay: SPR; GST-FliJ or GST-FliJ(Δ13–24) captured through immobilised anti-GST antibody on a CM5 chip; His-FlgN flowed over at 20 µl/min; 10 mM HEPES pH 7.4, 0.15 M NaCl, 3 mM EDTA, 0.005% Surfactant P20; 25 °C; steady-state analysis, 1 to 1 binding model; conditions: both partners purified
T1 construct: FliJ, flagellar export protein of Salmonella enterica serovar Typhimurium; also called GST-J; source: Salmonella MMHI0117, over-produced, in lysate

His-FlgN = target: B1; assay: as above; conditions: both partners purified

Binder | Kd (GST-FliJ) | Kd (His-FlgN)
B1 | 27.4 ± 13 µM | –
B2 | – | 7.74 ± 0.12 µM
